Experimental data as given in the RNAGym collection of RNA variant scans (doi:10.7554/elife.80360).

B1: HDV Ribozyme (parent)
chain: GGCCGGCAUGGUCCCAGCCUCCUCGCUGGCGCCGGCUGGGCAACAUUCCGAGGGGACCGUCCCCUCGGUAAUGGCGAAUGGGACCCA

Variants of: B1
Assay: self-cleavage, relative activity (ratio to wild type); higher = more cleavage; co-transcriptional

First: GGCCGGCAUGGUGCCAGCCUCCUCGCUGGCGCCGGCUGGGCAACAUUCCGAGGGGACCGUCCCCUCGGUAAUAGCGAAUGGGACCCA [C13G G73A]
Second: GGCCGGCAUGGUCCCAGCCUCCUCGCUGGCGCCGGCUGGGCAACGUUCCGAGGGGACCGUCCCCUCGGUAAUGGCGAAUGGGAUCCA [A45G C84U]
The self-cleavage of the first is lower: 0.0665 for the first, 0.658 for the second.

Compared with GGCCGGCAUGGUCCCAGCCUCCUCGCUGUCGCCGGCUGGGCAACAUUCCGAGGGGACGGUCCCCUCGGUAAUGGCGAAUGGGACCCA [G29U C58G], GGCCGGCAUGGUCCCAGCCUCCUCGCUGGCGCCGGCUGGGCAAGAUUCCGAGGGGACCGACCCCUCGGUAAUGGCGAAUGGGACCCA [C44G U60A] is higher in self-cleavage: 0.0755 for the first, 0.798 for the second.

First: GGCCGGCAUGGUCCCAGCCUCCUCGCUGGCGCCGGCUGGGCAACAUUCCGAGGGGACCGUCCCCUCGGUAAUGGGGAGUGGGACCCA [C75G A78G]
Second: GGCCAGCAUGGUCCCAGCCUCCUCGCUGGCGCCGGCUGGGCUACAUUCCGAGGGGACCGUCCCCUCGGUAAUGGCGAAUGGGACCCA [G5A A42U]
The self-cleavage of the first is higher: 0.222 for the first, 0.111 for the second.

Going from GGCCGGCAUGGUCCCAGCCUCCUCGCUGGCGCCGGCUGGGCAACAUUCCGAGGGUACCGUCCCCUCGGUAAUGGCGAAUGGGUCCCA [G55U A83U] to GGCCGGCAUGGUCCCAGCCUCCUCGCUGGCGCCGGCUGGGCAACAUUCCGAGGGGACCGUCCCCUCGGUAAUGGCGAAUGAGACCGA [G81A C86G], the self-cleavage rises from 0.409 to 0.45.

First: GGCCGGCAUGGUCCCAGCCUCCUCGCUGGAGCCGGCUGGGAAACAUUCCGAGGGGACCGUCCCCUCGGUAAUGGCGAAUGGGACCCA [C30A C41A]
Second: GGCCGGCAUGGUCCCAGCCUCCUCGCUGGCGCCGGCUGGGCAACAUUCCGAGGGGACCGUCCCCUCGGUAAUAGCGAAUGGGACACA [G73A C85A]
The self-cleavage of the first is lower: 0.429 for the first, 0.882 for the second.

Going from GGCCGGCAUGGUCCCAGCCUCCUCGCUGGCGCCGGCUGAGCAACAUUCCGUGGGGACCGUCCCCUCGGUAAUGGCGAAUGGGACCCA [G39A A51U] to GGCCGGCAUGGUCCCAGCCUCCUCGCUGGCACCGGCUGGGCAACAUUCCGAGGGGACCCUCCCCUCGGUAAUGGCGAAUGGGACCCA [G31A G59C], the self-cleavage falls from 0.521 to 0.348.

Compared with GGCCGGCAUGGUCCCAGCCUCCUCGCUGGCGCCGGCUGGGCGACAUUCCGAGGGGACCGUCCCCUCGGUUAUGGCGAAUGGGACCCA [A42G A70U], GGCCGGCAUGGUCCCAGCCUCCUCGCUGGCGCCGGCUGGGCAACAUUCCGAGGGGACCGUCCCGUCGGUAAUGGCGUAUGGGACCCA [C64G A77U] is higher in self-cleavage: 0.365 for the first, 0.506 for the second.

First: GGCCGGCAUGCUCCCAGCCUCCUCGCUGGCGCCGGCUGGGCAACAUUCCGAGGAGACCGUCCCCUCGGUAAUGGCGAAUGGGACCCA [G11C G54A]
Second: GGCCGGCAUGGUCCCAGCCUCCGCGCUGGCGCCGGCUGGGCAACAUUCCGAGGGGACCGUCCCCUCGAUAAUGGCGAAUGGGACCCA [U23G G68A]
The self-cleavage of the first is lower: 0.277 for the first, 0.565 for the second.

Compared with GGCCGGCAUAGUCCCAGCCUCCUCGUUGGCGCCGGCUGGGCAACAUUCCGAGGGGACCGUCCCCUCGGUAAUGGCGAAUGGGACCCA [G10A C26U], GGCCGGCAUGGUCCCAGCCUCCUCGCUCGCGCCGGCUGGGCAACCUUCCGAGGGGACCGUCCCCUCGGUAAUGGCGAAUGGGACCCA [G28C A45C] is lower in self-cleavage: 0.874 for the first, 0.0594 for the second.

First: GGCCGGAAUGGUCCCAGCCUCCUCGCUGGUGCCGGCUGGGCAACAUUCCGAGGGGACCGUCCCCUCGGUAAUGGCGAAUGGGACCCA [C7A C30U]
Second: GGCCGGCAUGGUCCCAGCCUCCUCGCUGGCGCCGACUGGGCAACAUUCCGAGGGAACCGUCCCCUCGGUAAUGGCGAAUGGGACCCA [G35A G55A]
The self-cleavage of the first is lower: 0.0396 for the first, 0.736 for the second.

Compared with GGCCGGGAUGGUCCCAGCCUCCUCGCUGGCGCCGGCUGGGCAACAUUCCGAGGGGAUCGUCCCCUCGGUAAUGGCGAAUGGGACCCA [C7G C57U], GGCCGGCAUGGUCCCAGCCUCCUCGCUGGCGCCGGCUGGGCAACACUCCGAGGGGACCGUCCCCUCGGUAAUCGCGAAUGGGACCCA [U46C G73C] is higher in self-cleavage: 0.383 for the first, 0.525 for the second.

First: GGCCGGCAUGGUCCCAGCCUCCUCGCUGGCGCCGGCUGGACAACAUUUCGAGGGGACCGUCCCCUCGGUAAUGGCGAAUGGGACCCA [G40A C48U]
Second: GGCCGGCAUGGUCCCAGCCUCCUCGCUGGCGCCGGCUGGGCAACAUUCCGAGGGGACCGUCCCCUCGGUAAUGGCGAAGGGGACUCA [U79G C85U]
The self-cleavage of the first is higher: 0.793 for the first, 0.705 for the second.

Compared with GGCCGGCAUGGUCCCAUCCUCCUCUCUGGCGCCGGCUGGGCAACAUUCCGAGGGGACCGUCCCCUCGGUAAUGGCGAAUGGGACCCA [G17U G25U], GGCCGGCAUGGUCCCAGGCUCCUCGCUGGCGCUGGCUGGGCAACAUUCCGAGGGGACCGUCCCCUCGGUAAUGGCGAAUGGGACCCA [C18G C33U] is lower in self-cleavage: 0.185 for the first, 0.128 for the second.

Going from GGCCGGCAUGGUCCCAGCAUCCUCGCUGGCGCCGGCUGGGCAACAUUCCGAGGGGACCGUCCCCUCGGUAAUGGAGAAUGGGACCCA [C19A C75A] to GGCCGGCAUGGUCCCAGCCUCCUCGCUGGCGCCGGCUGGUCAACAUUCCGAGGGGACCGUCCCCUCGGUAAUGGCGAAUGGUACCCA [G40U G82U], the self-cleavage falls from 0.185 to 0.171.

Compared with GGCCGGCAUGGUCCCAGCCUCCUCGCUGGCGUCGGCUGGGCAACAUUCCGAGGGGACCGUCCCCUCGGUAAUGGCGAAUGAGACCCA [C32U G81A], GGCCGGCAUGGUCCCAGCCUCCUCGCUGUCGCCGGCUGGGCAACAUUCCGAGGGGACCGUCCCCUCGGUAAUGGCGACUGGGACCCA [G29U A78C] is lower in self-cleavage: 0.158 for the first, 0 for the second.

Compared with GGUCGGCAUGGUCCCAGCCUCCUCGCUGGCGCCGGCUGGGCAACAUUCCGAGGGGACCGUCCCCUCGGUAAUGGCGAAUGGGACCCU [C3U A87U], GGCCGGCAUGGUCCCAGCCUCCUCGCUGGCGCCGGCUGGGCCACAUUCCGAGGGGACCGGCCCCUCGGUAAUGGCGAAUGGGACCCA [A42C U60G] is lower in self-cleavage: 0.725 for the first, 0.269 for the second.
